Assay [1] addresses Hemagglutinin (HA) of Influenza A virus A/Puerto Rico/8/34 H1N1 (PR8 virus) (Influenza A virus A/Puerto Rico/8/34 H1N1) (UniProt P03452). Put plainly: cell-based or functional assay.
Assay [2] addresses Hemagglutinin (HA) of Influenza A virus A/Roma-ISS/2/08 (Brisbane-like) (oseltamivir-sensitive) H1N1 (Influenza A virus A/RomaISS/2/08 H1N1). Briefly: cell-based or functional assay.
For assay [3], the target named is Hemagglutinin (HA) of Influenza A virus A/Turkey/Italy/2676/99 H7N1 (Influenza A virus A/Turkey/Italy/2676/99 H7N1). Put plainly: cell-based or functional assay.
For assay [4], the target named is Hemagglutinin (HA) of Influenza A virus A/Parma/5/06 (Wisconsin-like) H3N2 (Influenza A virus A/Parma/05/06 H3N2). Put plainly: cell-based or functional assay.
The target in assay [5] is Hemagglutinin (HA) of Influenza A virus A/Roma-ISS/2/08 (Brisbane-like) (oseltamivir-sensitive) H1N1 (Influenza A virus A/RomaISS/2/08 H1N1).

“And” between values parts separate entries of the source, which are not always exact repeats. Equal entries are not always repeated.

In the case of “Lactoferrin from bovine milk (bLf) (from UniProt P24627 20-708)”, the HI titre in assay [1] is 3 nM; in assay [2], 6000 pM; in assay [3], 93.1 fM; in assay [4] it was 3000 pM. The percentage of virus binding to bLf in assay [5] is 52.9% and 34.1% and 47.2%.
For “… (SEQ ID NO: 1), bLf C-lobe peptide 418-429”, the HI titre in assay [1] was 0.7 nM; in assay [2], 1.4 pM; in assay [3], 18 fM; in assay [4] it was 0.7 pM.
As for “… (SEQ ID NO: 2), bLf C-lobe peptide 506-522”, the HI titre in assay [1] was 0.35 nM; in assay [2], 1.4 pM; in assay [3], 46.5 fM; in assay [4] it was 0.7 pM.

The values above are taken from patent publication US20140322196A1.
